This passage reports Ka results from patent US20190153111A1.

Test [1] addresses Human FcγRIIIA 158V (human) (UniProt P08637). The experiment in a line: SPR (T100), biotinylated receptor on streptavidin chip, equilibrium binding, 1:1 model.
For test [2], the target named is Human FcγRIIIA 158F (human) (UniProt P08637). Described as above.
Human FcγRIIIA 158F (human), sequence (P08637 17-199 limits assumed): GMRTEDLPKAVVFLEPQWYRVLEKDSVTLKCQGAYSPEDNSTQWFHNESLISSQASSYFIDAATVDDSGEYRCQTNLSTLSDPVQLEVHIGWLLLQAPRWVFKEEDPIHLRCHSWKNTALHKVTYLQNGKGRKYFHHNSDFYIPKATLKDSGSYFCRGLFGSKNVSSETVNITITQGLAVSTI

Human FcγRIIIA 158V (human), sequence (P08637 other isoform, or with tags, fused parts or gaps): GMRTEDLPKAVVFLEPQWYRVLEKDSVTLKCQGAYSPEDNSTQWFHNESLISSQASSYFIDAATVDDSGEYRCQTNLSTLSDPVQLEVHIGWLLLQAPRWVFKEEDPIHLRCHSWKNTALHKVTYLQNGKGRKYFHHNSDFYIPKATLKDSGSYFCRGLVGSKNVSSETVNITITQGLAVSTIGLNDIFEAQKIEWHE

On to HCD122 (antibody), for which the Ka in test [1] is 1.72e+06 M⁻¹; in test [2] it was 699000 M⁻¹.
